From the supplement of paper PMC9112550, “Optimization of the antimicrobial peptide Bac7 by deep mutational scanning” (BMC Biology, 2022) come the findings set out here.
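Note: peptides expressed intracellularly from a pBAD plasmid library in pooled LB shake-flask culture, induced with 0.3% L-arabinose, DNA abundance read by NGS, three biological replicates, DESeq2 with apeglm shrinkage.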

The data set concerns Escherichia coli TOP10. Nature of the data set: shrunken log2 fold change of peptide-encoding DNA abundance (4.5 h post-induction vs induction); higher = less antimicrobial activity (less host growth inhibition). The settings on record: time post-induction: 4.5 h; library: site-saturation at positions 5, 18, 19, 20.
As for RRIRWRPPRLPRPRPRPRKKPRP, the “shrunken log2 fold change” value was 0.408.

On to RRIRMRPPRLPRPRPRPKLGPRP, for which the “shrunken log2 fold change” value stood at 0.597. Regarding RRIRGRPPRLPRPRPRPDFMPRP, the “shrunken log2 fold change” value is 0.545. Next, RRIRHRPPRLPRPRPRPIVKPRP: -0.19; RRIRGRPPRLPRPRPRPMIIPRP: 0.0975.

Take RRIRIRPPRLPRPRPRPEKKPRP: the “shrunken log2 fold change” value was -0.0556.

With RRIRLRPPRLPRPRPRPQSNPRP, the “shrunken log2 fold change” value is -0.0786. For RRIRRRPPRLPRPRPRPTQFPRP, the “shrunken log2 fold change” value is 0.384.

Take RRIRLRPPRLPRPRPRPMVHPRP: the “shrunken log2 fold change” value was 0.012.

With RRIRFRPPRLPRPRPRPQMKPRP, the “shrunken log2 fold change” value was -0.41.

For RRIRGRPPRLPRPRPRPKSTPRP, the “shrunken log2 fold change” value turned out to be 1.41. In the case of RRIRLRPPRLPRPRPRPNIVPRP, the “shrunken log2 fold change” value was -0.00437. Regarding RRIRGRPPRLPRPRPRPLTYPRP, the “shrunken log2 fold change” value came to 0.279. Regarding RRIRDRPPRLPRPRPRPVWWPRP, the “shrunken log2 fold change” value is -0.00968. Next, RRIRNRPPRLPRPRPRPMCKPRP: -0.175; RRIRCRPPRLPRPRPRPAPRPRP: 0.915; RRIRLRPPRLPRPRPRPRVNPRP: -0.155. Next, RRIRVRPPRLPRPRPRPIFQPRP: -0.052; RRIRARPPRLPRPRPRPNGEPRP: 0.189; RRIRMRPPRLPRPRPRPCSMPRP: -0.0341. The same measure for RRIRWRPPRLPRPRPRPWEIPRP: 0.124. For RRIRKRPPRLPRPRPRPANMPRP, the “shrunken log2 fold change” value was -0.167. On to RRIRCRPPRLPRPRPRPMTHPRP, for which the “shrunken log2 fold change” value is -0.377. For the sequence RRIRRRPPRLPRPRPRPTCEPRP, the “shrunken log2 fold change” value was 0.295.

In the case of RRIRQRPPRLPRPRPRPVDFPRP, the “shrunken log2 fold change” value was found to be 0.0196.

Regarding RRIRMRPPRLPRPRPRPSDYPRP, the “shrunken log2 fold change” value was 0.0806. RRIRGRPPRLPRPRPRPIMMPRP: the “shrunken log2 fold change” value is -0.0902. RRIRMRPPRLPRPRPRPKDCPRP: the “shrunken log2 fold change” value is -0.0772. RRIRIRPPRLPRPRPRPYYSPRP: the “shrunken log2 fold change” value was -0.213.

In the case of RRIRQRPPRLPRPRPRPLPPPRP, the “shrunken log2 fold change” value came out at 1.09. As for RRIRERPPRLPRPRPRPRVIPRP, the “shrunken log2 fold change” value was 0.0506. For the sequence RRIRRRPPRLPRPRPRPGSYPRP, the “shrunken log2 fold change” value is -0.0811. On to RRIRMRPPRLPRPRPRPTPPPRP, for which the “shrunken log2 fold change” value came out at 1.17.

For the sequence RRIRRRPPRLPRPRPRPKSYPRP, the “shrunken log2 fold change” value was found to be 0.171. Next, RRIRMRPPRLPRPRPRPSDIPRP: -0.192; RRIRWRPPRLPRPRPRPNANPRP: 0.109. For the sequence RRIRVRPPRLPRPRPRPYGHPRP, the “shrunken log2 fold change” value is -0.0167. As to RRIRYRPPRLPRPRPRPHQCPRP, the “shrunken log2 fold change” value is -0.0856.

In the case of RRIRDRPPRLPRPRPRPPTMPRP, the “shrunken log2 fold change” value was -0.061. Consider RRIRVRPPRLPRPRPRPLNLPRP, for which the “shrunken log2 fold change” value is -0.304. The same measure for RRIRNRPPRLPRPRPRPGEFPRP: -0.00204; for RRIRLRPPRLPRPRPRPLEVPRP: -0.0281. Turning to RRIRVRPPRLPRPRPRPNFMPRP, the “shrunken log2 fold change” value was 0.0796. RRIRIRPPRLPRPRPRPCRIPRP: the “shrunken log2 fold change” value is -0.0204. Turning to RRIRSRPPRLPRPRPRPRMFPRP, the “shrunken log2 fold change” value was -0.121. With RRIRWRPPRLPRPRPRPYMAPRP, the “shrunken log2 fold change” value was -0.247. Turning to RRIRHRPPRLPRPRPRPYCLPRP, the “shrunken log2 fold change” value was -0.524. For the sequence RRIRHRPPRLPRPRPRPFLAPRP, the “shrunken log2 fold change” value is -0.336. Next, RRIRMRPPRLPRPRPRPRNEPRP: 0.471; RRIRVRPPRLPRPRPRPSSIPRP: -0.128; RRIRARPPRLPRPRPRPSAQPRP: 0.96. For the sequence RRIRARPPRLPRPRPRPNQGPRP, the “shrunken log2 fold change” value is 0.392. As for RRIRGRPPRLPRPRPRPVQEPRP, the “shrunken log2 fold change” value came to 0.873.

In the case of RRIRIRPPRLPRPRPRPHFEPRP, the “shrunken log2 fold change” value is -0.377. For the sequence RRIRARPPRLPRPRPRPTWHPRP, the “shrunken log2 fold change” value was 0.419. Next, RRIRWRPPRLPRPRPRPICLPRP: 0.0313. As for RRIRLRPPRLPRPRPRPCFIPRP, the “shrunken log2 fold change” value was found to be 0.554. Turning to RRIRQRPPRLPRPRPRPWMCPRP, the “shrunken log2 fold change” value came out at 0.00702. The same measure for RRIRERPPRLPRPRPRPEAMPRP: 0.0431; for RRIRLRPPRLPRPRPRPYMWPRP: -1.05; for RRIRCRPPRLPRPRPRPQLHPRP: -0.213. RRIRERPPRLPRPRPRPSDRPRP: the “shrunken log2 fold change” value is -0.165.

Turning to RRIRRRPPRLPRPRPRPLGGPRP, the “shrunken log2 fold change” value turned out to be 0.376. As to RRIRIRPPRLPRPRPRPVNMPRP, the “shrunken log2 fold change” value was -0.103. For the sequence RRIRNRPPRLPRPRPRPVQVPRP, the “shrunken log2 fold change” value is -0.317. For RRIRSRPPRLPRPRPRPIYFPRP, the “shrunken log2 fold change” value is -0.397.

On to RRIRWRPPRLPRPRPRPQWKPRP, for which the “shrunken log2 fold change” value is -0.17. On to RRIRARPPRLPRPRPRPFKKPRP, for which the “shrunken log2 fold change” value was -0.0888. With RRIRWRPPRLPRPRPRPMGYPRP, the “shrunken log2 fold change” value was -0.132. For RRIRCRPPRLPRPRPRPDCKPRP, the “shrunken log2 fold change” value is -0.392. For the sequence RRIRCRPPRLPRPRPRPITTPRP, the “shrunken log2 fold change” value was -0.197. The same measure for RRIRKRPPRLPRPRPRPTWEPRP: -0.0667; for RRIRYRPPRLPRPRPRPFWQPRP: -0.122; for RRIRPRPPRLPRPRPRPDRLPRP: 0.48. RRIRTRPPRLPRPRPRPLLCPRP: the “shrunken log2 fold change” value was -0.413.

In the case of RRIRIRPPRLPRPRPRPFKPPRP, the “shrunken log2 fold change” value is -0.395. The same measure for RRIRPRPPRLPRPRPRPTDWPRP: 0.257.

For the sequence RRIRTRPPRLPRPRPRPERLPRP, the “shrunken log2 fold change” value was -0.0511. Consider RRIRNRPPRLPRPRPRPSYGPRP, for which the “shrunken log2 fold change” value was -0.156. RRIRPRPPRLPRPRPRPMLVPRP: the “shrunken log2 fold change” value worked out at 0.0962.

RRIRMRPPRLPRPRPRPADFPRP: the “shrunken log2 fold change” value amounted to 0.0087. RRIRWRPPRLPRPRPRPIDSPRP: the “shrunken log2 fold change” value is -0.0713. Consider RRIRKRPPRLPRPRPRPKCPPRP, for which the “shrunken log2 fold change” value worked out at 0.165. The same measure for RRIRYRPPRLPRPRPRPIYRPRP: -0.641; for RRIRGRPPRLPRPRPRPSTQPRP: 0.82. In the case of RRIRKRPPRLPRPRPRPLKNPRP, the “shrunken log2 fold change” value stood at 0.211. On to RRIRHRPPRLPRPRPRPQDCPRP, for which the “shrunken log2 fold change” value was -0.01.

Consider RRIRVRPPRLPRPRPRPHHNPRP, for which the “shrunken log2 fold change” value amounted to 0.192. In the case of RRIRHRPPRLPRPRPRPTIFPRP, the “shrunken log2 fold change” value was -0.0675. Turning to RRIRTRPPRLPRPRPRPHDGPRP, the “shrunken log2 fold change” value was -0.0845.

As for RRIRHRPPRLPRPRPRPIEAPRP, the “shrunken log2 fold change” value is -0.131. As to RRIRMRPPRLPRPRPRPLGWPRP, the “shrunken log2 fold change” value came to 1.32. With RRIRERPPRLPRPRPRPYLWPRP, the “shrunken log2 fold change” value is -0.431. As to RRIRARPPRLPRPRPRPDNGPRP, the “shrunken log2 fold change” value was -0.19. With RRIRARPPRLPRPRPRPQCYPRP, the “shrunken log2 fold change” value is -0.0761. Turning to RRIRHRPPRLPRPRPRPMPRPRP, the “shrunken log2 fold change” value is 0.069. RRIRHRPPRLPRPRPRPVCRPRP: the “shrunken log2 fold change” value was -0.3. Regarding RRIRTRPPRLPRPRPRPTNRPRP, the “shrunken log2 fold change” value was 0.0146. Take RRIRHRPPRLPRPRPRPGVGPRP: the “shrunken log2 fold change” value was 0.146. Regarding RRIRLRPPRLPRPRPRPTSGPRP, the “shrunken log2 fold change” value came out at 0.0882. As to RRIRCRPPRLPRPRPRPKPIPRP, the “shrunken log2 fold change” value came out at 0.0598. For RRIRMRPPRLPRPRPRPKECPRP, the “shrunken log2 fold change” value was -0.0981. Regarding RRIRRRPPRLPRPRPRPKRIPRP, the “shrunken log2 fold change” value was 0.191. As for RRIRIRPPRLPRPRPRPWDIPRP, the “shrunken log2 fold change” value is -0.00968. Take RRIRSRPPRLPRPRPRPWRRPRP: the “shrunken log2 fold change” value is 0.0927. Next, RRIRWRPPRLPRPRPRPDTLPRP: -0.134. Regarding RRIRFRPPRLPRPRPRPGNQPRP, the “shrunken log2 fold change” value was -0.00933. The same measure for RRIRVRPPRLPRPRPRPYNPPRP: -0.492; for RRIRERPPRLPRPRPRPDYAPRP: -0.0187; for RRIRNRPPRLPRPRPRPFGPPRP: -0.406. Next, RRIRRRPPRLPRPRPRPYPDPRP: -0.0558; RRIRHRPPRLPRPRPRPECEPRP: 0.16. Take RRIRIRPPRLPRPRPRPHHHPRP: the “shrunken log2 fold change” value is -0.719.

Consider RRIRNRPPRLPRPRPRPGVNPRP, for which the “shrunken log2 fold change” value was found to be 0.0306.

Consider RRIRMRPPRLPRPRPRPHTPPRP, for which the “shrunken log2 fold change” value amounted to 0.137. For the sequence RRIRQRPPRLPRPRPRPWPLPRP, the “shrunken log2 fold change” value is -0.0625. Turning to RRIRGRPPRLPRPRPRPPVLPRP, the “shrunken log2 fold change” value worked out at 0.25. As for RRIRQRPPRLPRPRPRPFASPRP, the “shrunken log2 fold change” value is -0.35. For RRIRQRPPRLPRPRPRPLFMPRP, the “shrunken log2 fold change” value is -1.12. For the sequence RRIRFRPPRLPRPRPRPKKLPRP, the “shrunken log2 fold change” value came to 0.173. On to RRIRHRPPRLPRPRPRPFLPPRP, for which the “shrunken log2 fold change” value was -0.671. The same measure for RRIRKRPPRLPRPRPRPGNHPRP: 0.0875. Consider RRIRYRPPRLPRPRPRPCIAPRP, for which the “shrunken log2 fold change” value is -0.148. The same measure for RRIRFRPPRLPRPRPRPRMDPRP: -0.0641. On to RRIRQRPPRLPRPRPRPNCIPRP, for which the “shrunken log2 fold change” value is 0.133.
